Source: paper PMC9351521 (Proceedings of the National Academy of Sciences of the …, 2022)
Positions count from the first letter of the chain named. In names and notes the source's numbering stands.

Columns and labels:
Conditions in all cases: both partners purified
[1] = target: T1, His-tagged SARS-CoV-2 RBD T332-K529 with Pro-527 omitted (SARS-CoV-2, wild-type RBD (P0DTC2 …)); assay: crystal structure
T1 construct: also called isolated RBD

[2] = target: T2, SARS-CoV-2 spike receptor binding domain, His-tagged (T332-K529 with Pro-527 omitted) (SARS-CoV-2, wild-type RBD (P0DTC2 …)); assay: ITC; […]; iTC200, 25 °C, PBS; […]
T2 construct: also called RBD

[3] = target: T3, SARS-CoV-2 spike glycoprotein ectodomain (amino acids 1 to 1,208, GSAS, PP, T4 fibritin trimerization domain) (SARS-CoV-2, P0DTC2 sequence with GSAS …, RRAR > GSAS at residues 682 to 685 | KV > PP at residues 986 to 987); assay: ITC; […]; iTC200, 25 °C, PBS; […]
T3 construct: also called trimeric spike protein

[4] = target: T2, SARS-CoV-2 spike receptor binding …; assay: ITC; […]; iTC200, 25 °C, PBS; […]; remark: listed apart in the source
[5] = target: biotinylated RBD (wild type) (SARS-CoV-2, wild-type RBD (P0DTC2 …)); assay: SPR; […]; Biacore T200, PBS pH 7.4 with 0.005% P20, 25 °C
[6] = target: T1, His-tagged SARS-CoV-2 RBD T332-K529 …; assay: ITC
[7] = target: T4, SARS-CoV-2 spike glycoprotein ectodomain (amino acids 1 to 1,208, RRAR > GSAS, KV > PP, T4 fibritin … (SARS-CoV-2, P0DTC2 sequence with GSAS …, RRAR > GSAS at residues 682 to 685 | KV > PP at residues 986 to 987)); assay: ITC
T4 construct: also called Spike protein; trimeric spike protein

[8] = target: biotinylated RBD (SARS-CoV-2, wild-type RBD (P0DTC2 …)); assay: SPR; Biacore T200, PBS pH 7.4 with 0.005% P20, 25 °C; […]; 1:1 binding model

B1: nanobody F2 (VHH)
VHH: QVQLVESGGGLVQAGGSLRLACIASGRTFHSYVMAWFRQAPGKEREFVAAISWSSTPTYYGESVKGRFTISRDNAKNTVYLQMNRLKPEDTAVYFCAADRGESYYYTRPTEYEFWGQGTQVTVSS
Question: Does B1 bind [1]?
Answer: binds

B2: H11-A10 (VHH)
VHH: QVQLVESGGGLMQAGGSLRLSCAVSGRTFSTAAMGWFRQAPGKEREFVAAIRWSGGSAYYADSVKGRFTISRDKAKNTVYLQMNSLKYEDTAVYYCAGFSATRSLLSDYATWPYDYWGQGTQVTVSS
Question: B2 was tested. Which “stoichiometry N” value [2] did it give?
Answer: 1

B3: H11-H4 Q98R H100E (D4 hybrid) (VHH)
VHH: B2 VHH with G98R, F99T, S100E, A101Y, T102V, R103S, S104Y
Question: What does the source list for B3?
Answer: stoichiometry N [3]: 1; stoichiometry N [4]: 1

B4: H11-H6 (VHH)
VHH: B2 VHH with F99S, S100K, A101I
Question: B4 was tested. Which “stoichiometry N” value [4] did it give?
Answer: 1

B5: H11-H4 R52E (VHH)
VHH: B2 VHH with R52E, G98Q, F99T, S100H, A101Y, T102V, R103S, S104Y
Question: Does B5 bind [5]?
Answer: no binding (tested: 1 µM)

B6: nanobody H11-A10 (VHH)
VHH: B2 VHH
Question: Which results are given for B6?
Answer: Kd [6]: 60 ± 4.6 nM; dH [6]: -19.8 kcal/mol

B7: nanobody H11 V101Y R103S (VHH)
VHH: B2 VHH with G98Q, F99T, S100R, A101Y, R103S
notes: also called double mutant A101Y, R103S
Question: For B7, which Kd [6] is on record?
Answer: 5220 nM

Question: And the dH [6]?
Answer: -11 kcal/mol

B8: nanobody H11 (VHH)
VHH: B2 VHH with G98Q, F99T, S100R, A101V
notes: also called parent H11; parent nanobody
Question: Does B8 bind [1]?
Answer: binds

B9: H11-H4 Y104S (VHH)
VHH: B2 VHH with G98Q, F99T, S100H, A101Y, T102V, R103S
Question: Which “stoichiometry N” value [2] does the source give for B9 here?
Answer: 1

B10: nanobody H11-H4 Y104S (VHH)
VHH: B2 VHH with G98Q, F99T, S100H, A101Y, T102V, R103S
Question: With B10 as the binder, how does the Kd [6] read?
Answer: 409 ± 91 nM

Question: What about the dH [6] of the same binder?
Answer: -11 kcal/mol

B11: H11-B5 (VHH)
VHH: B2 VHH with G98S, F99Y, S100Q
Question: Which “stoichiometry N” value [2] does the source give for B11 here?
Answer: 1

B12: H11 V101Y R103S (VHH)
VHH: B2 VHH with G98Q, F99T, S100R, A101Y, R103S
Question: How did the “stoichiometry N” value [2] turn out when B12 was run?
Answer: 1

B13: nanobody H11-B5 (VHH)
VHH: B2 VHH with G98S, F99Y, S100Q
Question: With B13 as the binder, how does the Kd [6] read?
Answer: 53 ± 5.3 nM

Question: What about the dH [6] of the same binder?
Answer: -16.3 kcal/mol

B14: nanobody H11-H4 Q98R H100E (D4 hybrid) (VHH)
VHH: B2 VHH with G98R, F99T, S100E, A101Y, T102V, R103S, S104Y
notes: also called H4-D4 hybrid; hybrid nanobody
Question: Which Kd [7] does the source give for B14 here?
Answer: 21 ± 3 nM

Question: And the dH [7]?
Answer: -14.8 kcal/mol

Question: What about the Kd [6] of the same binder?
Answer: 18 ± 1 nM

Question: And the dH [6]?
Answer: -16.5 kcal/mol

Question: What about the t1/2 [8] of the same binder?
Answer: 29 s

B15: H11-H4 R52K (VHH)
VHH: B2 VHH with R52K, G98Q, F99T, S100H, A101Y, T102V, R103S, S104Y
Question: Does B15 bind [5]?
Answer: no binding (tested: 1 µM)

B16: nanobody H11-H6 (VHH)
VHH: B2 VHH with F99S, S100K, A101I
Question: What does the source list for B16?
Answer: Kd [6]: 57 ± 4.5 nM; dH [6]: -19.1 kcal/mol

B17: H11-H4 R52A (VHH)
VHH: B2 VHH with R52A, G98Q, F99T, S100H, A101Y, T102V, R103S, S104Y
Question: Does B17 bind [5]?
Answer: no binding (tested: 1 µM)
